Substitutions are numbered along the chain they refer to.

What all share (experiment): cytokine release
In experiment [1] the target is T1, p53 C135Y peptide on HLA-DRA*01:01 / HLA-DRB1*07:01 (human).
T1 peptide: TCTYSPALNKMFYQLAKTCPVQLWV

The target in experiment [2] is T2, p53 C135Y peptide on HLA-DQA1*02:01 / HLA-DQB1*02:01 (human).
T2 peptide: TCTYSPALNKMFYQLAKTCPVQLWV

Experiment [3] addresses T3, p53 C135Y peptide on HLA-DQA1*02:01 / HLA-DQB1*02:02 (human).
T3 peptide: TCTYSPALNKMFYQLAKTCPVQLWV

The target of experiment [4] is T4, p53 C135Y peptide on HLA-DQA1*02:01 / HLA-DQB1*05:01 (human).
T4 peptide: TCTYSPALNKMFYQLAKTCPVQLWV

For experiment [5], the target named is T5, p53 C135Y peptide on HLA-DRA*01:01 / HLA-DRB3*01:01 (human).
T5 peptide: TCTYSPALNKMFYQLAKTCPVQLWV

In experiment [6] the target is T6, p53 C135Y peptide on HLA-DQA*01:01 / HLA-DRB4*01:01 (human).
T6 peptide: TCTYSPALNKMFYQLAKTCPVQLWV

Experiment [7] deals with T7, p53 wild type peptide on HLA-DRA*01:01 / HLA-DRB1*07:01 (human).
T7 peptide: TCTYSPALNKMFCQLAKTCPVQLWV

Experiment [8] deals with T8, p53 C135Y peptide on HLA-DPA1*01:03 / HLA-DPB1*02:01 (human).
T8 peptide: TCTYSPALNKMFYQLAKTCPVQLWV

Experiment [9] addresses T9, p53 C135Y peptide on HLA-DPA1*01:03 / HLA-DPB1*11:01 (human).
T9 peptide: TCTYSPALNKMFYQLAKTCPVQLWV

Experiment [10] addresses T10, p53 C135Y peptide on HLA-DPA1*02:01 / HLA-DPB1*02:01 (human).
T10 peptide: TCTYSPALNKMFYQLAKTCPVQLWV

The target in experiment [11] is T11, p53 C135Y peptide on HLA-DPA1*02:01 / HLA-DPB1*11:01 (human).
T11 peptide: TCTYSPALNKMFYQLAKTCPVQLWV

In experiment [12] the target is T12, p53 C135Y peptide on HLA-DQA1*01:01 / HLA-DQB1*02:01 (human).
T12 peptide: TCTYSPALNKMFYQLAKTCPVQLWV

Experiment [13] concerns the target T13, p53 C135Y peptide on HLA-DQA1*01:01 / HLA-DQB1*02:02 (human).
T13 peptide: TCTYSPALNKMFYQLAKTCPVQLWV

Experiment [14] has as its target T14, p53 C135Y peptide on HLA-DQA1*01:01 / HLA-DQB1*05:01 (human).
T14 peptide: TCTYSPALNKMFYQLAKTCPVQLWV

Experiment [15] concerns the target T15, p53 wild type peptide on HLA-A*02:01 (human).
T15 peptide: HMTEVVRRC

Experiment [16] concerns the target T16, p53 R175H peptide on HLA-A*23:01 (human).
T16 peptide: HMTEVVRHC

Experiment [17] deals with T17, p53 R175H peptide on HLA-B*08:01 (human).
T17 peptide: HMTEVVRHC

Experiment [18] concerns the target T18, p53 R175H peptide on HLA-B*44:03 (human).
T18 peptide: HMTEVVRHC

Experiment [19] addresses T19, p53 R175H peptide on HLA-C*04:01 (human).
T19 peptide: HMTEVVRHC

Experiment [20] has as its target T20, p53 R175H peptide on HLA-C*07:01 (human).
T20 peptide: HMTEVVRHC

The target of experiment [21] is T21, p53 wild type peptide on HLA-DRA*01:01 / HLA-DRB1*01:01 (human).
T21 peptide: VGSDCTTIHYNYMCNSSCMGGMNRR

B1: 4316-D TCR (TCR, V domains shown)
Valpha: QQVMQIPQYQHVQEGEDFTTYCNSSTTLSNIQWYKQRPGGHPVFLIQLVKSGEVKKQKRLTFQFGEAKKNSSLHITATQTTDVGTYFCAESYSGGYQKVTFGIGTKLQVIP
Vbeta: EPEVTQTPSHQVTQMGQEVILRCVPISNHLYFYWYRQILGQKVEFLVSFYNNEISEKSEIFDDQFSVERPDGSNFTLKIRSTKLEDSAMYFCASSSFSNEQFFGPGTRLTVL
On to B1, for which the binding result was “recognises” in experiment [1]; “no recognition” in experiment [2]; “no recognition” in [3]; “no recognition” in experiment [4]; “no recognition” in experiment [5]; “no recognition” in experiment [6]. The binding result in experiment [7], in experiment [8], in experiment [9], in [10], in experiment [11] and in experiment [12] was “no recognition” in each case. Moreover, the binding result in experiment [13] and in experiment [14] was “no recognition” in each case.

B2: 4141 IVS TCR (TCR, V domains shown)
Valpha: QTVTQSQPEMSVQEAETVTLSCTYDTSENNYYLFWYKQPPSRQMILVIRQEAYKQQNATENRFSVNFQKAAKSFSLKISDSQLGDTAMYFCAFMAYMEYGNKLVFGAGTILRVKS
Vbeta: B1 Vbeta with S94C, S95K, S96G, F97I, S98T, N99D, E100T, F102Y
For B2, the binding result in experiment [15], in [16], in [17], in experiment [18], in experiment [19] and in experiment [20] was “no recognition” in each case.

B3: 4304 TCR-K (TCR, V domains shown)
Valpha: KDQVFQPSTVASSEGAVVEIFCNHSVSNAYNFFWYLHFPGCAPRLLVKGSKPSQQGRYNMTYERFSSSLLILQVREADAAVYYCAVSGYQLIWGAGTKLIIKP
Vbeta: GVAQSPRYKIIEKRQSVAFWCNPISGHATLYWYQQILGQGPKLLIQFQNNGVVDDSQLPKDRFSAERLKGVDSTLKIQPAKLEDSAVYLCASSLDRRGGRETQYFGPGTRLLVL
Turning to B3, the binding result in experiment [21] is given as “no recognition”.

B4: 4304 TCR-2 (TCR, V domains shown)
Valpha: QSVSQHNHHVILSEAASLELGCNYSYGGTVNLFWYVQYPGQHLQLLLKYFSGDPLVKGIKGFEAEFIKSKFSFNLRKPSVQWSDTAEYFCAVTFMDTGRRALTFGSGTRLQVQP
Vbeta: GVSQSPSNKVTEKGKDVELRCDPISGHTALYWYRQSLGQGLEFLIYFQGNSAPDKSGLPSDRFSAERTGGSVSTLTIQRTQQEDSAVYLCASSPRGGDYEQYFGPGTRLTVT
For B4, the binding result in experiment [21] was “no recognition”.

B5: 4304 TCR-4 (TCR, V domains shown)
Valpha: QKEVEQNSGPLSVPEGAIASLNCTYSDRGSQSFFWYRQYSGKSPELIMFIYSNGDKEDGRFTAQLNKASQYVSLLIRDSQPSDSATYLCAVRGGNTGFQKLVFGTGTRLLVSP
Vbeta: AVISQKPSRDICQRGTSLTIQCQVDSQVTMMFWYRQQPGQSLTLIATANQGSEATYESGFVIDKFPISRPNLTFSTLTVSNMSPEDSSIYLCSVRSEDTQYFGPGTRLTVL
Consider B5, for which the binding result in [21] is given as “no recognition”.

The record behind these values is patent US20240254190A1 (published 2024).
